The results in this text go back to PMC5720862 (Developmental cell, 2017).

Like-named read-outs stand apart in the source and are kept apart here.

Holding throughout (assay): pull-down
In assay [1] the target is T1, GST-DSK2A (Arabidopsis thaliana, UniProt Q9SII9 1-538).
T1 sequence (looked up): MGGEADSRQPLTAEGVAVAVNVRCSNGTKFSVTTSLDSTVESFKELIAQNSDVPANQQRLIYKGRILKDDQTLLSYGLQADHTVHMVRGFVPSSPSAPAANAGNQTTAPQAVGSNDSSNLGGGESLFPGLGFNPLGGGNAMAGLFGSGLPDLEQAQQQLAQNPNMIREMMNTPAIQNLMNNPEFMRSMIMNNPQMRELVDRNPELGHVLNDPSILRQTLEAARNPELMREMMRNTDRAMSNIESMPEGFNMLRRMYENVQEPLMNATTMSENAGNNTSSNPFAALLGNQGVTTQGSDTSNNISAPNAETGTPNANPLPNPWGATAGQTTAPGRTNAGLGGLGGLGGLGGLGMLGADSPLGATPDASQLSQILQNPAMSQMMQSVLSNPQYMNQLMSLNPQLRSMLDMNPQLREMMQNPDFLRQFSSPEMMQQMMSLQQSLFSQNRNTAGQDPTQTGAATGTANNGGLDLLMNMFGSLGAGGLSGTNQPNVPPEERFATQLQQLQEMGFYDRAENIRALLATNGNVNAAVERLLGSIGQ

Assay [2] has as its target T2, DSK2A-MBP (Arabidopsis thaliana, UniProt Q9SII9 1-538).
T2 sequence (looked up): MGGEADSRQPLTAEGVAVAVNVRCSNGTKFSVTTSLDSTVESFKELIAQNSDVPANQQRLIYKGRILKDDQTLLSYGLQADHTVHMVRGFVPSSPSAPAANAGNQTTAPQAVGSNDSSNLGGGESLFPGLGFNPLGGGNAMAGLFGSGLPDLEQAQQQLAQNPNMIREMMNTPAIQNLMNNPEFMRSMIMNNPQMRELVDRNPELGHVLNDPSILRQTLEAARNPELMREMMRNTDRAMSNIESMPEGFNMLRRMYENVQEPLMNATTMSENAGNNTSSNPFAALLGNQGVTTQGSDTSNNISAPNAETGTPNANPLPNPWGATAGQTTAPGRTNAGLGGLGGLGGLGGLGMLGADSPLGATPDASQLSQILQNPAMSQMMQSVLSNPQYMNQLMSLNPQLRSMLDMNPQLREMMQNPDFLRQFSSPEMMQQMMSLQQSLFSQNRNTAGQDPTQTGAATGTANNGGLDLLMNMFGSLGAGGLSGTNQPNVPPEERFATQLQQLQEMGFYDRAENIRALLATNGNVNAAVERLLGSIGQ

In assay [3] the target is T3, DSK2A-HIS (Arabidopsis thaliana, UniProt Q9SII9 1-538).
T3 sequence (looked up): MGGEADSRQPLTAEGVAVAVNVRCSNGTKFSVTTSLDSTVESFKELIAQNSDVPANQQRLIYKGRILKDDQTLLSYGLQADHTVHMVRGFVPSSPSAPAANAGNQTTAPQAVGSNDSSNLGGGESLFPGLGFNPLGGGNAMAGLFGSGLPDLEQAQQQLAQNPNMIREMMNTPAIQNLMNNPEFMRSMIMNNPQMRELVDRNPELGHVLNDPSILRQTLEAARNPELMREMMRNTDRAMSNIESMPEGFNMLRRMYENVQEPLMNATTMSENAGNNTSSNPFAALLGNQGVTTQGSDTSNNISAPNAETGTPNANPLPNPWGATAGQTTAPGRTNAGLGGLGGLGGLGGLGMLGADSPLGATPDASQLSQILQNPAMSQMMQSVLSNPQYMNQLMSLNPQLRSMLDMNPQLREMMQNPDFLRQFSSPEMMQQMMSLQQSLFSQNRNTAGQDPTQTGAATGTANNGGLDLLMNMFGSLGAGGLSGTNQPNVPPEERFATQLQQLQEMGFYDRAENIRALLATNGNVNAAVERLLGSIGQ

Assay [4] has as its target T2, DSK2A-MBP. This is another data set of the same source.

B1: SINAT2-MBP (enzyme, Arabidopsis thaliana, UniProt Q9M2P4 1-308, looked up)
chain: MAPGGSALKEVMESNSTGMDYEVKTAKVEVNNNKPTKPGSAGIGKYGIHSNNGVYELLECPVCTNLMYPPIHQCPNGHTLCSNCKLRVQNTCPTCRYELGNIRCLALEKVAESLEVPCRYQNLGCHDIFPYYSKLKHEQHCRFRPYTCPYAGSECSVTGDIPTLVVHLKDDHKVDMHDGCTFNHRYVKSNPHEVENATWMLTVFNCFGRQFCLHFEAFQLGMAPVYMAFLRFMGDENEAKKFSYSLEVGAHGRKLTWQGIPRSIRDSHRKVRDSQDGLIIPRNLALYFSGGDRQELKLRVTGRIWKEE
For B1, the binding result in assay [1] is given as “binds”.

B2: GST-ATG8i (natural protein, Arabidopsis thaliana, UniProt Q9LRP7 1-115, looked up)
chain: MKSFKEQYTLDERLAESREIIAKYPTRIPVIAEKYCKTDLPAIEKKKFLVPRDMSVGQFIYILSARLHLSPGKALFVFVNNTLPQTAALMDSVYESYKDDDGFVYMCYSSEKTFG
Regarding B2, the binding result in assay [2] is given as “binds”.

B3: GST-ATG8a (natural protein, Arabidopsis thaliana, UniProt Q8LEM4 1-117, looked up)
chain: MAKSSFKISNPLEARMSESSRIREKYPDRIPVIVEKAGQSDVPDIDKKKYLVPADLTVGQFVYVVRKRIKLGAEKAIFVFVKNTLPPTAALMSAIYEEHKDEDGFLYMTYSGENTFG
In the case of B3, in assay [2], the binding result was “binds”.

B4: phosphorylated BES1-MBP (natural protein, Arabidopsis thaliana, UniProt Q9LN63 1-335, looked up)
chain: MTSDGATSTSAAAAAAAMATRRKPSWRERENNRRRERRRRAVAAKIYTGLRAQGNYNLPKHCDNNEVLKALCSEAGWVVEEDGTTYRKGHKPLPGDMAGSSSRATPYSSHNQSPLSSTFDSPILSYQVSPSSSSFPSPSRVGDPHNISTIFPFLRNGGIPSSLPPLRISNSAPVTPPVSSPTSRNPKPLPTWESFTKQSMSMAAKQSMTSLNYPFYAVSAPASPTHHRQFHAPATIPECDESDSSTVDSGHWISFQKFAQQQPFSASMVPTSPTFNLVKPAPQQLSPNTAAIQEIGQSSEFKFENSQVKPWEGERIHDVAMEDLELTLGNGKAHS
modifications: phosphorylated in vitro by BIN2-GST (sites not given)
Regarding B4, the binding result in assay [3] is on record as “binds”.

B5: BIN2, recombinant, of the in vitro pull-down with DSK2 (enzyme, Arabidopsis thaliana, UniProt Q39011 1-380, looked up)
chain: MADDKEMPAAVVDGHDQVTGHIISTTIGGKNGEPKQTISYMAERVVGTGSFGIVFQAKCLETGETVAIKKVLQDRRYKNRELQLMRVMDHPNVVCLKHCFFSTTSKDELFLNLVMEYVPESLYRVLKHYSSANQRMPLVYVKLYMYQIFRGLAYIHNVAGVCHRDLKPQNLLVDPLTHQVKICDFGSAKQLVKGEANISYICSRFYRAPELIFGATEYTTSIDIWSAGCVLAELLLGQPLFPGENAVDQLVEIIKVLGTPTREEIRCMNPHYTDFRFPQIKAHPWHKIFHKRMPPEAIDFASRLLQYSPSLRCTALEACAHPFFDELREPNARLPNGRPFPPLFNFKQEVAGSSPELVNKLIPDHIKRQLGLSFLNQSGT
On to B5, for which the binding result in assay [4] is recorded as “binds”.

B6: GST-ATG8e (natural protein, Arabidopsis thaliana, UniProt Q8S926 1-118, looked up)
chain: MNKGSIFKMDNDFEKRKAEAGRIREKYPDRIPVIVEKAEKSEVPNIDKKKYLVPSDLTVGQFVYVIRKRIKLSAEKAIFIFVDNVLPPTGELMSSVYEDKKDEDGFLYITYSGENTFG
For B6, the binding result in assay [2] is reported as “binds”.

B7: GST-ATG8f (natural protein, Arabidopsis thaliana, UniProt Q8VYK7 1-117, looked up)
chain: MAKSSFKQEHDLEKRRAEAARIREKYPDRIPVIVEKAEKSDIPTIDKKKYLVPADLTVGQFVYVIRKRIKLSAEKAIFIFVDNVLPPAGALMSSVYEEKKDDDGFLYVTYSGENTFG
For the molecule B7, the binding result in assay [2] was “binds”.
